{
  "source": "patent US7288523B2",
  "about": "“Peptide binding the KLVFF-sequence of amyloid-β” (Neurochem (International) Limited, priority 1995, dated 2007)",
  "key": {"amyloid fibril formation": {"biological_target": "amyloid fibril formation (Homo sapiens, UniProt P05067)", "settings": "literature; cited from earlier work"}, "Aβ-1-40 [1]": {"biological_target": "T1, Aβ-1-40 (Homo sapiens, UniProt P05067)", "T1 construct": "Incubation of synthetic Aβ-1-40 at 100 μM for 48 h; host or cells: synthetic peptide (chemical synthesis)", "assay": "Aβ-1-40 polymerization alone or coincubated with peptide, electron microscopy", "format": "biochemical", "description": "Aβ-1-40 was incubated at 100 μM in TBS for 48 h at 37° C. in a shaking water bath, either alone or together with 100 μM AcKLVFFNH2. The polymerized material was adsorbed to formvar-coated grids and negatively stained with 2% uranyl acetate in water."}, "[2]": {"assay": "Aggregation and fibril formation of Aβ-1-28 peptides (RPLC of supernatant, electron microscopy of pellet)", "format": "physicochemical", "settings": "200 μM, 24 h, 37° C., TBS", "description": "Aβ-1-28 (FIG. 3A) and AP-1-28^AAVFA (FIG. 3B) were incubated at 200 μM in TBS for 24 h at 37° C. in a shaking water bath. After incubation, the tubes were centrifuged at 20,000 g for 20 min and the content of non-aggregated peptide in the supernatants (FIG. 3A, B) was analyzed using an established C4 RPLC system (12) whereas the aggregated peptides in the pellets were analyzed by electron microscopy after adsorption to formvar-coated grids and negative staining with 2% uranyl acetate in water."}, "[3]": {"settings": "literature; cited from earlier work"}, "^125I-labelled Aβ-1-40": {"biological_target": "T2, ^125I-labelled Aβ-1-40 (Homo sapiens, UniProt P05067)", "T2 construct": "incubated in the presence of 20 μM ^125I-labelled Aβ-1-40; host or cells: synthetic peptide (chemical synthesis)", "assay": "SPOT filter-bound peptides incubated with radioactive Aβ-1-40, autoradiography and densitometry", "format": "binding", "settings": "20 μM ^125I-labelled Aβ-1-40, 20° C., 12 h, TBS pH 7.3; semiquantitative", "excerpt": "a) Ten-mers corresponding to consecutive sequences of Aβ-1-40 were synthesized on a filter matrix using the SPOT-technique (the peptides were synthesized essentially as described by Frank [R. Frank, Tetrahedron 42, 9217-9232 (1992)]. Briefly, a spacer corresponding to 2 molecules of β-alanine was coupled to cellulose membranes (Whatman lChr). The peptides were synthesized on these derivatized membranes using Fmoc protected and pentafluorophenyl-activated amino acids (AMS Biotechnology) dissolved in N-methylpyrrolidone. Coupling efficiency was monitored using bromphenol blue.). We synthesized the thirty-one possible 10-mers of the Aβ-1-40. Peptide no. 1 corresponds to amino acids 1-10, peptide no. 2 to amino acids 2-11 etc. The filter-bound peptides were incubated with radioactive Aβ-1-40. Following washing of the filter in high-salt buffer, bound radioactivity was estimated by autoradiography and densitometry. […] Radioactivity bound to the filter was visualized by autoradiography and quantitated using a densitometer.\nb) Peptide no. 11 ([…]) and indicated N- and C-terminal truncated fragments were synthesized using the same technique as described above and analyzed for affinity to ^125I-labelled Aβ-1-40.\nd) Each amino acid residue in KLVFF was systematically replaced with A and analyzed for affinity to ^125I-labelled Aβ-1-40. […]"}, "Aβ-1-40 [4]": {"biological_target": "T1, Aβ-1-40", "assay": "Surface plasmon resonance spectroscopy (BIAcore 2000), Aβ-1-40 over immobilized peptide", "format": "binding", "settings": "chip derivatized with KLVFF-βA-βA-C; three Aβ-1-40 concentrations, pH 7.4", "description": "c) Sensorgram from BIAcore 2000. Aβ-1-40, at three different concentrations in running buffer, pH 7.4. Aβ-1-40 was injected during 10 minutes over a sensor-chip derivatized with the peptide KLVFF-βA-βA-C.\nc) The interaction between soluble Aβ-1-40 and immobilized KLVFF was monitored in real-time (FIG. 2D) using surface plasmon resonance spectroscopy (BIAcore, Pharmacia) (BIAcore 2000 (Pharmacia Biosensor AB, Sweden) was used for real-time studies based on surface plasmon resonance spectroscopy. The peptide was immobilized using thiol coupling. The running buffer consisted of 10 mM HEPES, 0.15 M NaCl, 3.4 mM EDTA and 0.05% surfactant P20 as described. [U. Jansson, M. Malmqvist, Adv. Biosens. 2, 291-336 (1992)]).\nd) AA served as linker between the active peptide and the chip (upper trace) and cysteine alone, indicating non-specific binding, (C) as control (lower trace). Arrows indicate start and stop of injection (FIG. 2D)."}, "Aβ (Aβ-16-20)": {"biological_target": "T3, Aβ (Aβ-16-20) (Homo sapiens, UniProt P05067)", "T3 construct": "It is a 40 to 42 amino acids long proteolytic fragment of the Alzheimer amyloid precursor protein (APP)", "assay": "Binding to Aβ (Example 5)", "excerpt": "(§1) By screening combinatorial pentapeptide libraries exclusively composed of D-amino acids (lowercase) with labelled KLVFF, several ligands with a motif containing phenylalanine (f) in the second and leucine (l) in the third position were identified (e.g. lflrr). By using a short peptide in the screening, known to bind to a region in Aβ critical for its polymerization (i.e. KLVFF), the risk of identifying D-pentapeptides that interact with nonrelevant regions in Aβ (N- or C-terminal to Aβ-16-20) was eliminated. […] Since peptides built up of D-amino acids are resistant to proteolytic degradation, these ligands may be beneficial for inhibition of amyloidogenesis in vivo."}, "Aβ": {"biological_target": "T4, Aβ (Homo sapiens, UniProt P05067)", "T4 construct": "It is a 40 to 42 amino acids long proteolytic fragment of the Alzheimer amyloid precursor protein (APP)", "assay": "Inhibition of amyloid fibril formation (Example 5)", "format": "biochemical"}, "[5]": {"settings": "WO 95/08999; cited from earlier work"}, "labelled KLVFF": {"biological_target": "T5, labelled KLVFF (Homo sapiens, UniProt P05067)", "T5 construct": "with labelled KLVFF", "assay": "Screening of combinatorial D-amino acid pentapeptide libraries with labelled KLVFF", "format": "binding", "excerpt": "as §1"}},
  "data": [
    {"compound": "Nc1c(/N=N/c2ccc(-c3ccc(/N=N/c4cc(S(=O)(=O)O)c5ccccc5c4N)cc3)cc2)cc(S(=O)(=O)O)c2ccccc12", "note": "[Congo red]", "values": [
      {"measurement": "inhibition of amyloid fibril formation", "setting": "amyloid fibril formation", "result": "may have such properties"}
    ]},
    {"compound": "AcQKLVFFNH2", "values": [
      {"measurement": "Aβ-1-40 amyloid fibril formation on coincubation with peptide", "setting": "Aβ-1-40 [1]; 100 μM Aβ-1-40 with equimolar peptide, 48 h, 37° C.", "result": "this type of fibrils did not form"},
      {"measurement": "aggregates formed by the peptide itself", "setting": "Aβ-1-40 [1]; peptide alone, electron microscopy", "result": "small rod-like aggregates"}
    ]},
    {"compound": "Aβ-1-28: a well-studied Aβ fragment that readily forms amyloid fibrils [reference compound]", "values": [
      {"measurement": "aggregation (non-aggregated peptide in supernatant)", "setting": "[2]", "result": "aggregated"},
      {"measurement": "fibril formation (electron microscopy)", "setting": "[2]", "result": "formed large fibril bundles"},
      {"measurement": "formation of amyloid fibrils", "setting": "[3]", "result": "readily forms amyloid fibrils"}
    ]},
    {"compound": "Aβ-1-28^AAVFA: mutated Aβ-1-28 where the KLVFF sequence was substituted with AAVFA", "values": [
      {"measurement": "aggregation (non-aggregated peptide in supernatant)", "setting": "[2]", "result": "almost completely failed to aggregate"},
      {"measurement": "fibril formation (electron microscopy)", "setting": "[2]", "result": "only formed a few dispersed fibrils"},
      {"measurement": "fibril formation (electron microscopy)", "setting": "[2]; listed as alanine-substituted Aβ-1-28", "result": "does not form fibrils"}
    ]},
    {"compound": "Lys-Leu-Val-Phe-Phe [KLVFF]", "values": [
      {"measurement": "binding of radioactive Aβ-1-40 to filter-bound peptide", "setting": "^125I-labelled Aβ-1-40", "result": "high Aβ binding capacity"},
      {"measurement": "binding of soluble Aβ-1-40 to immobilized peptide (sensorgram)", "setting": "Aβ-1-40 [4]", "result": "not saturable"},
      {"measurement": "binding to Aβ", "setting": "Aβ (Aβ-16-20)", "result": "binds stereo specifically"},
      {"measurement": "inhibition of amyloid fibril formation", "setting": "Aβ", "result": "inhibit amyloid fibril formation"},
      {"measurement": "amnestic or memory enhancing effect", "setting": "[5]", "result": "neither significantly amnestic nor memory enhancing"}
    ]},
    {"compound": "lflrr", "values": [
      {"measurement": "identified as ligand of labelled KLVFF", "setting": "labelled KLVFF", "result": "identified"}
    ]},
    {"compound": "p3: fragment of Aβ termed p3 and corresponding to Aβ-17-40 or Aβ-17-42 (LVFFAEDVGSNKGAIIGLMVGGVV; P3(40); UniProt P05067 688-711, looked up)", "values": [
      {"measurement": "formation of amyloid fibrils", "setting": "[3]", "result": "not capable of forming amyloid in vitro or in vivo"}
    ]}
  ]
}
